The sequences below were run on Escherichia coli TOP10 (assay: shrunken log2 fold change of peptide-encoding DNA abundance (4.5 h post-induction vs induction); higher = less antimicrobial activity (less host growth inhibition)). Conditions: time post-induction: 4.5 h; library: site-saturation at positions 5, 18, 19, 20.
RRIRERPPRLPRPRPRPVILPRP was tested, and the “shrunken log2 fold change” value was -0.388.
With RRIRDRPPRLPRPRPRPKHNPRP the “shrunken log2 fold change” value was -0.0986.
In the case of RRIRMRPPRLPRPRPRPCYRPRP, the “shrunken log2 fold change” value is reported as 0.035.
In the case of RRIRERPPRLPRPRPRPCIVPRP, the “shrunken log2 fold change” value is reported as -0.427.
In the case of RRIRRRPPRLPRPRPRPLLEPRP, the “shrunken log2 fold change” value is reported as 0.534.
With RRIRQRPPRLPRPRPRPLYNPRP the “shrunken log2 fold change” value was -0.796.
In the case of RRIRCRPPRLPRPRPRPNGSPRP, the “shrunken log2 fold change” value is reported as -0.398.
With RRIRPRPPRLPRPRPRPAQQPRP the “shrunken log2 fold change” value was 0.263.
For RRIRYRPPRLPRPRPRPSTYPRP, the “shrunken log2 fold change” value was -0.332.
RRIRRRPPRLPRPRPRPAHKPRP was tested, and the “shrunken log2 fold change” value was 0.386.
With RRIRQRPPRLPRPRPRPCFMPRP the “shrunken log2 fold change” value was 0.628.
In the case of RRIRCRPPRLPRPRPRPILMPRP, the “shrunken log2 fold change” value is reported as -0.796.
RRIRFRPPRLPRPRPRPMHEPRP was tested, and the “shrunken log2 fold change” value was 0.085.
RRIRQRPPRLPRPRPRPEYGPRP was tested, and the “shrunken log2 fold change” value was -0.0248.
In the case of RRIRVRPPRLPRPRPRPHGHPRP, the “shrunken log2 fold change” value is reported as -0.0491.
With RRIRERPPRLPRPRPRPSKNPRP the “shrunken log2 fold change” value was -0.895.
With RRIRHRPPRLPRPRPRPGWGPRP the “shrunken log2 fold change” value was 0.0673.
With RRIRKRPPRLPRPRPRPCYRPRP the “shrunken log2 fold change” value was -0.0703.
RRIRCRPPRLPRPRPRPQGHPRP was tested, and the “shrunken log2 fold change” value was -0.0916.
In the case of RRIRFRPPRLPRPRPRPNDHPRP, the “shrunken log2 fold change” value is reported as -0.512.
In the case of RRIRRRPPRLPRPRPRPCPVPRP, the “shrunken log2 fold change” value is reported as -0.256.
In the case of RRIRDRPPRLPRPRPRPNAIPRP, the “shrunken log2 fold change” value is reported as 0.13.
For RRIRQRPPRLPRPRPRPPNWPRP, the “shrunken log2 fold change” value was 0.358.
For RRIRVRPPRLPRPRPRPIWLPRP, the “shrunken log2 fold change” value was -0.106.
RRIRTRPPRLPRPRPRPKMVPRP was tested, and the “shrunken log2 fold change” value was -0.0237.
For RRIRERPPRLPRPRPRPAIYPRP, the “shrunken log2 fold change” value was -0.051.
RRIRHRPPRLPRPRPRPVHRPRP was tested, and the “shrunken log2 fold change” value was -0.143.
RRIRMRPPRLPRPRPRPEQQPRP was tested, and the “shrunken log2 fold change” value was -0.0233.
With RRIRFRPPRLPRPRPRPFAEPRP the “shrunken log2 fold change” value was -0.348.
For RRIRKRPPRLPRPRPRPHVEPRP, the “shrunken log2 fold change” value was -0.0479.
For RRIRRRPPRLPRPRPRPAACPRP, the “shrunken log2 fold change” value was 0.0555.
With RRIRRRPPRLPRPRPRPYLPPRP the “shrunken log2 fold change” value was -0.456.
For RRIRGRPPRLPRPRPRPVSQPRP, the “shrunken log2 fold change” value was 0.795.
For RRIRTRPPRLPRPRPRPGYNPRP, the “shrunken log2 fold change” value was -0.957.
In the case of RRIRQRPPRLPRPRPRPLHCPRP, the “shrunken log2 fold change” value is reported as -0.183.
For RRIRHRPPRLPRPRPRPNEKPRP, the “shrunken log2 fold change” value was -0.0239.
RRIRFRPPRLPRPRPRPMDYPRP was tested, and the “shrunken log2 fold change” value was -0.00172.
With RRIRTRPPRLPRPRPRPAFVPRP the “shrunken log2 fold change” value was -0.163.
RRIRFRPPRLPRPRPRPPKHPRP was tested, and the “shrunken log2 fold change” value was 0.292.
In the case of RRIRIRPPRLPRPRPRPTGMPRP, the “shrunken log2 fold change” value is reported as -0.161.
RRIRTRPPRLPRPRPRPQIIPRP was tested, and the “shrunken log2 fold change” value was -0.358.
RRIRLRPPRLPRPRPRPFWEPRP was tested, and the “shrunken log2 fold change” value was 0.117.
In the case of RRIRHRPPRLPRPRPRPTMCPRP, the “shrunken log2 fold change” value is reported as -0.00396.
In the case of RRIRMRPPRLPRPRPRPTSAPRP, the “shrunken log2 fold change” value is reported as 0.74.
With RRIRHRPPRLPRPRPRPLLDPRP the “shrunken log2 fold change” value was -0.117.
RRIRSRPPRLPRPRPRPGCTPRP was tested, and the “shrunken log2 fold change” value was 0.22.
For RRIRQRPPRLPRPRPRPAEAPRP, the “shrunken log2 fold change” value was 0.61.
For RRIRPRPPRLPRPRPRPEANPRP, the “shrunken log2 fold change” value was 0.473.
With RRIRQRPPRLPRPRPRPNAKPRP the “shrunken log2 fold change” value was -0.0176.
RRIRVRPPRLPRPRPRPTDAPRP was tested, and the “shrunken log2 fold change” value was 0.0111.
With RRIRTRPPRLPRPRPRPYGEPRP the “shrunken log2 fold change” value was -0.074.
With RRIRCRPPRLPRPRPRPKTRPRP the “shrunken log2 fold change” value was 0.305.
RRIRGRPPRLPRPRPRPAYIPRP was tested, and the “shrunken log2 fold change” value was -0.156.
RRIRNRPPRLPRPRPRPDCWPRP was tested, and the “shrunken log2 fold change” value was -0.0568.
In the case of RRIRVRPPRLPRPRPRPIRFPRP, the “shrunken log2 fold change” value is reported as -0.0571.
For RRIRIRPPRLPRPRPRPPMKPRP, the “shrunken log2 fold change” value was -0.789.
RRIRVRPPRLPRPRPRPYYYPRP was tested, and the “shrunken log2 fold change” value was -0.796.
In the case of RRIRMRPPRLPRPRPRPDELPRP, the “shrunken log2 fold change” value is reported as 2.12.
In the case of RRIRNRPPRLPRPRPRPQEHPRP, the “shrunken log2 fold change” value is reported as 0.422.
With RRIRARPPRLPRPRPRPQFEPRP the “shrunken log2 fold change” value was -0.102.

— the supplement of paper PMC9112550, “Optimization of the antimicrobial peptide Bac7 by deep mutational scanning” (BMC Biology, 2022)
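Note: peptides expressed intracellularly from a pBAD plasmid library in pooled LB shake-flask culture, induced with 0.3% L-arabinose, DNA abundance read by NGS, three biological replicates, DESeq2 with apeglm shrinkage.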
